Kd data for one substance are collected here from paper PMC5655137.

For orientation: Kd means the equilibrium constant for the complex coming apart.

The assay concerns the target E. coli small ribosomal 30S subunit (E. coli (MRE600)) (UniProt P0AG67).

Chain of E. coli RNA polymerase core complex (P0A7Z4 whole entry): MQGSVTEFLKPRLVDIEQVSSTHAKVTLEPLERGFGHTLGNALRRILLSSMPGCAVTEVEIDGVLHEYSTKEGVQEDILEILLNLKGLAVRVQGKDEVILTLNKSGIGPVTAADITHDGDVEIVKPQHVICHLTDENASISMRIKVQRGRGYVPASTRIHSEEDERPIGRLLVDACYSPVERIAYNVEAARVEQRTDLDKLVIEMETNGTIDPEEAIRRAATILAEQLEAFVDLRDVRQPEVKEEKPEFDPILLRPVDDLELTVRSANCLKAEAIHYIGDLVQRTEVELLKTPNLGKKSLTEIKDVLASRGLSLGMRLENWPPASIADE
Chain of E. coli RNA polymerase core complex (P0A8V2 2-1341): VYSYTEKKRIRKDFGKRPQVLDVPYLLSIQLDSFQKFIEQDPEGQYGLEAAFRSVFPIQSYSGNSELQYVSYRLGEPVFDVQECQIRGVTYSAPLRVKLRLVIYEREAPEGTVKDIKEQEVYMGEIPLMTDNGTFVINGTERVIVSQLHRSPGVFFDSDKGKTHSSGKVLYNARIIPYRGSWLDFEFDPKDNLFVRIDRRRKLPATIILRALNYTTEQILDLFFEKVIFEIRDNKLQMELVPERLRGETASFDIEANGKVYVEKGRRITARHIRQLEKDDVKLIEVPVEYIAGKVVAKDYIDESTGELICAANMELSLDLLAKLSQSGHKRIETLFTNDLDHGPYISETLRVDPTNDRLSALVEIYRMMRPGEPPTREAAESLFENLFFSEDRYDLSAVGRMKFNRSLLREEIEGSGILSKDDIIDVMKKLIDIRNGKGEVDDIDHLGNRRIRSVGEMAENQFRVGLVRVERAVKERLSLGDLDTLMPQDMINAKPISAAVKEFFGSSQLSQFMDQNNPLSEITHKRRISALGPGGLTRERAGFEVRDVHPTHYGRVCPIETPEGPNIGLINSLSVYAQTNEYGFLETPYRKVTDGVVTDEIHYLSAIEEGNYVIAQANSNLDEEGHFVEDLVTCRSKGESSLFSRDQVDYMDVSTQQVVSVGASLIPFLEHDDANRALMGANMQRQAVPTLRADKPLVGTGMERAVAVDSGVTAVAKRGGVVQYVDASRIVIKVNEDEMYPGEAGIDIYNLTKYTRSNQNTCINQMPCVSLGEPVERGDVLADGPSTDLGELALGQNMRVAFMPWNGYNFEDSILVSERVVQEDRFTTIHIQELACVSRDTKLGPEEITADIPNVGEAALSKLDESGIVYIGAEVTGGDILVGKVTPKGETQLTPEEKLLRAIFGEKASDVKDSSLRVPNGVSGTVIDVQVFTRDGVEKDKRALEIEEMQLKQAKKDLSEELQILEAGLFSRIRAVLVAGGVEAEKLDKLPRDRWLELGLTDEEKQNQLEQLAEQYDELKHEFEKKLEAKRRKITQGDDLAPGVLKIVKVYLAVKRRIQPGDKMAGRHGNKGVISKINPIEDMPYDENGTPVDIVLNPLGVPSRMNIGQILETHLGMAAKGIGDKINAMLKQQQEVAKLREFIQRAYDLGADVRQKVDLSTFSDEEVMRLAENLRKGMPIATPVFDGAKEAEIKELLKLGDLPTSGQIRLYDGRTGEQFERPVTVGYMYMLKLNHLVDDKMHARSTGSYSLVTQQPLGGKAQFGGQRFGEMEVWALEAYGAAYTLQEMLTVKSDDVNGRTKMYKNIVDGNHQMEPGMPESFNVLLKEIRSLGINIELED
Chain of E. coli RNA polymerase core complex (P0A8T7 8-1376): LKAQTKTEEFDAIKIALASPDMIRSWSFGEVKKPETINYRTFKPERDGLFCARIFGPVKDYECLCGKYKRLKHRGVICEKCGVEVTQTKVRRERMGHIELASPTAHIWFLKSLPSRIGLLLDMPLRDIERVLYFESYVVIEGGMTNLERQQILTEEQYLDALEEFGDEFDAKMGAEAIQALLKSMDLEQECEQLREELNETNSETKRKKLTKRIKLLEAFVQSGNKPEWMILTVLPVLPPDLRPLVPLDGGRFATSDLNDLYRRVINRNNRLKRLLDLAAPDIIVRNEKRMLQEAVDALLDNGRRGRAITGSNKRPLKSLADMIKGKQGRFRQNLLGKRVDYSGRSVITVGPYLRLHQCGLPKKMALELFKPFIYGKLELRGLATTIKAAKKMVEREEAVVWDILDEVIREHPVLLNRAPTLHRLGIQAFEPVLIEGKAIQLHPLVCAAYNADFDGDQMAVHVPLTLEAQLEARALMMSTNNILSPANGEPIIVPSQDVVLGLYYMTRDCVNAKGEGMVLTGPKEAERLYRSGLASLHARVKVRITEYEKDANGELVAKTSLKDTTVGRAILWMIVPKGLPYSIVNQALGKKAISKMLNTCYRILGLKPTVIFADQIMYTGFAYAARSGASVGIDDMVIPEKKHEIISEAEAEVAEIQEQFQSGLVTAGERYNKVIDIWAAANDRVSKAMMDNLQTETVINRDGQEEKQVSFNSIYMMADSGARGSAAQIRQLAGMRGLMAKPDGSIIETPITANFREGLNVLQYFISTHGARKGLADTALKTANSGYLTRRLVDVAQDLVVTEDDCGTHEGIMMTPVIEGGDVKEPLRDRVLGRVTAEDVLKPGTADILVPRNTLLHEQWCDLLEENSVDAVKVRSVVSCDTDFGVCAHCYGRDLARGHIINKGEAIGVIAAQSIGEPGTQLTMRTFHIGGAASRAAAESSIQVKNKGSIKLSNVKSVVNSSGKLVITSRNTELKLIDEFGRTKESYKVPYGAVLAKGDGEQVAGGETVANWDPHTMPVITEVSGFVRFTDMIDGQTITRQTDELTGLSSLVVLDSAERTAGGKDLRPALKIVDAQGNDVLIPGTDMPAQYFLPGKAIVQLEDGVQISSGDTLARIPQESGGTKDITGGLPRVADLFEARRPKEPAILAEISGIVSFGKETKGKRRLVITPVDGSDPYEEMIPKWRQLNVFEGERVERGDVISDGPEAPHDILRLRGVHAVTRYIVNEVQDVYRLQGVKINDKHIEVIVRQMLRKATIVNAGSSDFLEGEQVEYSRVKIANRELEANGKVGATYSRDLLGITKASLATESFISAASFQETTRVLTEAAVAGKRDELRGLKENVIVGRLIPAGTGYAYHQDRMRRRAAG
Chain of E. coli RNA polymerase core complex (P0A800 whole entry): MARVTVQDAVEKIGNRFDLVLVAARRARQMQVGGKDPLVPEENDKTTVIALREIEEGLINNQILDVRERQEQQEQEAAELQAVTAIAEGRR

As for “E. coli RNA polymerase core complex (from UniProt P0A7Z4 1-329; P0A8V2 2-1341; P0A8T7 8-1376; P0A800 1-91) (complex; C-terminal 6xHis tag on beta' omitted; Zn-bound beta' Zn-finger; core without sigma; K12 sequences assumed)”, the Kd was 21 nM. This lies in the double-digit nanomolar range.
